Results on five molecules are retold here after paper PMC3480424, “The Metagenome-Derived Enzymes LipS and LipT Increase the Diversity of Known Lipases” (PLoS ONE, 2012).

In assay [1] the target is wild-type LipS (LipS-WT) (metagenome-derived (100% identity to Symbiobacterium thermophilum)). The experiment in a line: SEC; size exclusion chromatography during purification of LipS for crystallization; conditions not told (ref. 67). A general note: In gel filtration, larger molecules generally elute earlier.
The subject of assay [2] is T1, LipS-WT (uncultured bacterium).
T1 construct: crystallization construct LipS-WT with native N-terminus (disordered to about residue 35); space group P4, 4 molecules per asymmetric unit; dimer
The experiment in a line: X-ray crystal structure, […] Å. Conditions: active site next to S126 and H257, contact to D187; spermidine was added as crystallisation additive, residual density interpreted as spermidine; PDB code assigned by order of listing. It is filed as binding.

For the next assay, the target named is T2, LipS (Symbiobacterium thermophilum, UniProt Q67MR3).
T2 construct: gene STH2045; full-length, 280 residues, C-terminal His6 (pET21a), E. coli BL21(DE3), Ni-NTA; dimer by SEC
T2 sequence (Q67MR3 entry or part of it): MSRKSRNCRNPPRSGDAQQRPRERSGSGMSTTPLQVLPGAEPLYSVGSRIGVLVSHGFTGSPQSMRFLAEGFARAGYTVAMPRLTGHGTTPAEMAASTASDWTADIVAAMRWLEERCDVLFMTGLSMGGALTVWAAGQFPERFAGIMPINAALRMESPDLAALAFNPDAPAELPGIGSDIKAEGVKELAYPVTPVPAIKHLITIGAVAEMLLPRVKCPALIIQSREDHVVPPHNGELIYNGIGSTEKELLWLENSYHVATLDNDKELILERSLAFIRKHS
The experiment in a line: pNP-decanoate hydrolysis, spectrophotometric at […] nm. The class given is biochemical. The settings on record: pNP-decanoate as substrate, 5 min preincubation, 70°C, 10 min.

Assay [3] has as its target LipT (metagenome-derived (97% identity to Thermus scotoductus)). The experiment in a line: SDS-PAGE after incomplete heat denaturation; 15% SDS-PAGE of purified LipT after 5 min at 95°C, Coomassie staining.
The target of a further assay is T3, LipT (uncultured bacterium, UniProt K7QE48).
T3 construct: full ORF of 331 residues incl. predicted signal peptide (cleavage Ala21/Val22), C-terminal His6 (pET21a), E. coli BL21(DE3), Ni-NTA; about 36 kDa monomer, multimer (at least dimer)
T3 sequence (K7QE48 1-328 limits assumed): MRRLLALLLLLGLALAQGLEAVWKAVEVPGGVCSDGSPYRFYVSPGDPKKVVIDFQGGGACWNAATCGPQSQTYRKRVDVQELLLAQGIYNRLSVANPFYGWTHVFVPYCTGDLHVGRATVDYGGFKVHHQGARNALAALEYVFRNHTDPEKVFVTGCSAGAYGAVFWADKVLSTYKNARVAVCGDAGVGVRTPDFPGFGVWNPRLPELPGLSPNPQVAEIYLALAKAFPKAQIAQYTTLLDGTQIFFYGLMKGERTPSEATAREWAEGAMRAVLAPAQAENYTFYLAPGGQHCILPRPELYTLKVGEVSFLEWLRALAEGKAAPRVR
The experiment in a line: spectrophotometric 4-nitrophenol release at […] nm. The class given is biochemical. The settings on record: 75°C, 0.1 M potassium phosphate pH 8.0.

The target in assay [4] is LipS with His6-tag at the C-terminus (LipS-H6) (metagenome-derived (100% identity to Symbiobacterium thermophilum)). Put plainly: SEC; size exclusion chromatography during purification of LipS for crystallization; conditions not told (ref. 67).

Consider wild-type LipS (LipS-WT) (enzyme), for which the stoichiometry N (usually the number of molecules, sites or subunits per partner or assembly) in assay [1] worked out at 2.
For `NCCCCNCCCN` [spermidine], the “X-ray crystal structure, 1.99 Å” value in assay [2] is listed as “Spermidine was used as an additive to improve crystal quality”. For the same molecule, the “inhibition at 3 and 5 mM” value against LipS is on record as “shown to inhibit the activity of LipS with its substrate pNP-decanoate”.
LipT (enzyme): the stoichiometry N in assay [3] is greater than 2.
As for `CCCCCCCCCC(=O)Oc1ccc([N+](=O)[O-])cc1` [4-nitrophenol-decanoate (C10)], the “Km (mol l^-1)” value on LipT is recorded as 1.1 • 10^−3 mol l^−1.
The molecule “LipS with His6-tag at the C-terminus (LipS-H6) (enzyme)” yielded a stoichiometry N in assay [4] of 2.
